Conditions: Bos taurus; pH 8.5; Thermal; DSC; ascorbate 1 mM; whole UniProt chain shown

B1: Adrenodoxin, mitochondrial wild type, P00257 (protein)
chain: MAARLLRVASAALGDTAGRWRLLARPRAGAGGLRGSRGPGLGGGAVATRTLSVSGRAQSSSEDKITVHFINRDGETLTTKGKIGDSLLDVVVQNNLDIDGFGACEGTLACSTCHLIFEQHIFEKLEAITDEENDMLDLAYGLTDRSRLGCQICLTKAMDNMTVRVPDAVSDARESIDMGMNSSKIE
- Tm: 51.4 °C
- heat capacity change of unfolding: 1.79 kcal/mol/K
- unfolding enthalpy (calorimetric): 84.8 kcal/mol

From FireProtDB (doi:10.1002/pro.5560050915)
